# Target: CD19 on CD19+ cells (Nalm6 and Namalwa) (human) (UniProt P15391)
# Assay: cell-based or functional assay
# Sequence of UniProt P15391 (P15391 20-556): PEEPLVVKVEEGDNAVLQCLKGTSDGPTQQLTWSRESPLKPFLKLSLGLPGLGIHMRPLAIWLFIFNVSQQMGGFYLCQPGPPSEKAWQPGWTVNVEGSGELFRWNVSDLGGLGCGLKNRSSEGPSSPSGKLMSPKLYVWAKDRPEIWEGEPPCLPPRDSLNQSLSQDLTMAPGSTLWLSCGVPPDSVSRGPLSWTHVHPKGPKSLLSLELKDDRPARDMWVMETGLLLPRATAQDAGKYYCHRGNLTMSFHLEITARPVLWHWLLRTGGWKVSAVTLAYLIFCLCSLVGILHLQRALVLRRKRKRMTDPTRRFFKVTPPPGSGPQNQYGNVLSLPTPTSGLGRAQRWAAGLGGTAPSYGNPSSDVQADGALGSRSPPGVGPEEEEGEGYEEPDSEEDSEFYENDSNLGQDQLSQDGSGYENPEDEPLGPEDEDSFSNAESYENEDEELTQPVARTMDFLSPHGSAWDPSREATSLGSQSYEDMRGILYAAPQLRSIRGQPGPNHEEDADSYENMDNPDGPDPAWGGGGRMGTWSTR
substance,measurement,value
"ARI, a second-generation anti-CD19 CAR, expressed on primary T cells from the AWARI lentiviral vector (AW promoter, SEQ ID NO 1)","specific lysis of CD19+ cells (Nalm6, Namalwa) after 48 h co-culture, relative to non-transduced T cells",70 to 80%

# — patent publication US20220009993A1
